From US20140193415A1

Key:
[1] = target: human IGF-1R (soluble, analyte in SPR) (human) (UniProt P08069); test: SPR (ProteOn XPR36), 25 C, Fab captured by anti-Fab, IGF-1R as analyte
[2] = target: human IGF-1R (soluble, analyte in SPR) (human) (UniProt P08069); test: SPR (ProteOn XPR36), 25 C, Fab captured by anti-Fab; ratio against parental Ak18

Binder	Kd [1]	koff [1]	kon [1]	x-fold increase of binding affinity (=KD (unmodified AK18)/KD (CDR-modified)) [2]
<IGF-1R> L31D11 Fab fragment (affinity-matured <IGF-1R> HUMAB-Clone 18) (Fab, V domains shown) VH: QVELVESGGGVVQPGRSQRLSCAASGFTFSSYGMHWVRQAPGKGLEWVAIIWFDGSSTYYADSVRGRFTISRDNSKNTLYLQMNSLRAEDTAVYFCARELGRRYFDLWGRGTLVSVSS VL: EIVLTQSPATLSLSPGERATLSCRASRSVYSSLAWYQQKPGQAPRLLIYKASSRATGIPARFSGSGSGTDFTLTISSLEPEDFAVYYCQQRSKWPPWTFGQGTKVESK	0.269 nM	0.000153 s⁻¹	571000 M⁻¹ s⁻¹	68 fold
<IGF-1R> L31D7 Fab fragment (affinity-matured <IGF-1R> HUMAB-Clone 18) (Fab, V domains shown) VH: QVELVESGGGVVQPGRSQRLSCAASGFTFSSYGMHWVRQAPGKGLEWVAIIWFDGSSTYYADSVRGRFTISRDNSKNTLYLQMNSLRAEDTAVYFCARELGRRYFDLWGRGTLVSVSS VL: EIVLTQSPATLSLSPGERATLSCRASQSVIQSLAWYQQKPGQAPRLLIYRASKRATGIPARFSGSGSGTDFTLTISSLEPEDFAVYYCQQRSKWPPWTFGQGTKVESK	1.03 nM	0.000538 s⁻¹	523000 M⁻¹ s⁻¹	17.8 fold

Continued by falling Kd [1], values first:

Kd [1]	koff [1]	kon [1]	x-fold increase of binding affinity (=KD (unmodified AK18)/KD (CDR-modified)) [2]	Binder
1.47 nM	0.00025 s⁻¹	170000 M⁻¹ s⁻¹	12.4 fold	<IGF-1R> F13B5 Fab fragment (affinity-matured <IGF-1R> HUMAB-Clone 18) (Fab, V domains shown) VH: QVELVESGGGVVQPGRSQRLSCAASGFTFSSYGMHWVRQAPGKGLEWVAIIWFDGSSTYYADSVRGRFTISRDNSKNTLYLQMNSLRAEDTAVYFCARELGRRYFDLWGRGTLVSVSS VL: EIVLTQSPATLSLSPGERATLSCRASQSVSSYLAWYQQKPGQAPRLLIYQASKRATGIPARFSGSGSGTDFTLTISSLEPEDFAVYYCQQRSKYPPWTFGQGTKVESK
1.02 nM	0.000237 s⁻¹	232000 M⁻¹ s⁻¹	17.9 fold	<IGF-1R> L37F7 Fab fragment (affinity-matured <IGF-1R> HUMAB-Clone 18) (Fab, V domains shown) VH: QVELVESGGGVVQPGRSQRLSCAASGFTFSSYGMHWVRQAPGKGLEWVAIIWFDGSSTYYADSVRGRFTISRDNSKNTLYLQMNSLRAEDTAVYFCARELGRRYFDLWGRGTLVSVSS VL: EIVLTQSPATLSLSPGERATLSCRASQSVSSQLAWYQQKPGQAPRLLIYKATNRATGIPARFSGSGSGTDFTLTISSLEPEDFAVYYCQQRSKYPPWTFGQGTKVESK
0.769 nM	0.00027 s⁻¹	351000 M⁻¹ s⁻¹	23.8 fold	<IGF-1R> L39D7 Fab fragment (affinity-matured <IGF-1R> HUMAB-Clone 18) (Fab, V domains shown) VH: QVELVESGGGVVQPGRSQRLSCAASGFTFSSYGMHWVRQAPGKGLEWVAIIWFDGSSTYYADSVRGRFTISRDNSKNTLYLQMNSLRAEDTAVYFCARELGRRYFDLWGRGTLVSVSS VL: EIVLTQSPATLSLSPGERATLSCRASQSVSKQLAWYQQKPGQAPRLLIYNASKRATGIPARFSGSGSGTDFTLTISSLEPEDFAVYYCQQRSKYPPWTFGQGTKVESK
